Assay results: the supplement of paper PMC9170038

Test system: MS2 coat protein
Experiment: apparent KD of MS2 coat protein; designed switch direction (-1 OFF switch, 1 ON switch): -1; higher = weaker reporter binding
Summary of the method: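 An oligonucleotide input, 200 uM small-molecule ligand, or no input was present during titration of SNAP-549-labelled MS2 coat protein, which was doubled from 0.7 or 1.5 nM to 3 µM. Designed RNA switches had been transcribed on Illumina chips by stalled E. coli RNA polymerase. Apparent KD per design is the median over clusters of curves fitted to normalised cluster fluorescence.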

[1] = Eterna round: R95, input ligand: FMN 200 uM
[2] = Eterna round: R95, input ligand: microRNA oligo, concentration not stated
[3] = Eterna round: R95, input ligand: none
[4] = input ligand: microRNA oligo, concentration not stated

| Sequence | apparent KD of MS2 coat protein [1] [nM] | apparent KD of MS2 coat protein [2] [nM] | apparent KD of MS2 coat protein [3] [nM] | apparent KD of MS2 coat protein (input ligand: FMN 200 uM) [nM] | apparent KD of MS2 coat protein [4] [nM] | apparent KD of MS2 coat protein (input ligand: none) [nM] |
| --- | --- | --- | --- | --- | --- | --- |
| AGUACUAACACGAAAGUGUUAGUACAAUAAGCUUGUGAUACAUGAGGAUCACCCAUGUCCUCAUAAGCUCGUCUUAU [salish99_TOv2_r3_045] (puzzle: Sensor v3, turn-off variant 2) | 24.7 | 652 | 21.9 |  |  |  |
| AGUACUAACACGAAAGUGUUAGUACUAUAAGCUUGUGUUACAUGAGGAUCACCCAUGUCCUCAUAAGCUCGUCUUAA [Mat - Sensor v3 - Turn-off var 2 - D63] (puzzle: Sensor v3, turn-off variant 2) | 35.2 | 437 | 41 |  |  |  |
| AGUACUAACACGAGAGUGUUAGUACUAUAAGCUUGUGAAACAUGAGGAUCACCCAUGUCCUCAUAAGCUCGUCUUAU [Mat - Sensor v3 - Turn-off var 2 - D103] (Eterna round: R96, puzzle: Sensor v3, turn-off variant 2) |  |  |  | 13.8 | 452 | 16.8 |
| AGUACUAACACGAGAGUGUUAGUACUAUAAGCUUGUGAAACAUGAGGAUCACCCAUGUCCUCAUAAGCUCGUCUUAU [Mat - Sensor v3 - Turn-off var 2 - D103] (puzzle: Sensor v3, turn-off variant 2) | 15.3 | 682 | 12.5 |  |  |  |
| AGUACUAACAGCUGACUGUUAGUACUGUAGGUUUGUGUUACAUGAGGAUCACCCAUGUCCUCAUAGGCUCGUCUUGU [Mat - Sensor v3 - Turn-off var 2 - D97] (puzzle: Sensor v3, turn-off variant 2) | 291 | 100 | 284 |  |  |  |
| AGUACUAUCACGAAAGUGAUAGUACAAAUAGCAAGUGAAACAUGAGGAUCACCCAUGUCCUCAUUUGCUCGUCUUAA [Mat - Sensor v2 -ver2- JL mod - D66] (Eterna round: R96, puzzle: Sensor v2, turn-off variant 2) |  |  |  | 12.6 | 320 | 14.3 |
| AGUACUAUGCGUGCUGACAUGCGUAGUGCAGCAGGUGUAACAUGAGGAUCACCCAUGUCCUCAUUUGCUCGUCUUAU [Mat - Sensor v3 - Turn-off var 2 - D12] (puzzle: Sensor v3, turn-off variant 2) | 116 | 201 | 127 |  |  |  |
| AGUACUUACUCGAUAGUGUUAGUACAAUAAGCUUGUGAAACAUGAGGAUCACCCAUGUCCUCAUAAGCUCGUCUUAU [salish99_TOv2_r3_1005] (puzzle: Sensor v3, turn-off variant 2) | 17.6 | 627 | 15.8 |  |  |  |
| AGUAGAUCUACGCUUGCGUGGAUCUGCUAUGCAGGUGUCACAUGAGGAUCACCCAUGUCCUCAUUUGUUCGUCUUAU [JL turnoff v2 99.16] (puzzle: Sensor v3, turn-off variant 2) | 18.7 | 33.8 | 15.5 |  |  |  |
| AGUAGGAGAGGAUAUACGAAGUCAAAAGACUUCAAUACUCAACAUGAGGAUCACCCAUGUAGAAGGCUCCUACA [Omei Ex2 BD A4] (Eterna round: R97, puzzle: Exclusion 2) |  |  |  | 22.9 |  | 19.4 |
| AGUAGGUCUACCUUGGUGGAUCUGCAUUUAAGCAGGUGUACAUGAGGAUCACCCAUGUCCUCAUUUGCUCGUCUUAU [JL turnoff v2 99.30] (puzzle: Sensor v3, turn-off variant 2) | 453 | 342 | 492 |  |  |  |
| AGUCCAGAUGUUAGGAUAUGCAACUAGCCAUUGUAGCAGAAGGAACAUGAGGAUCACCCAUGUACAAAGACCCG [Edgeraer] (puzzle: Brourd's mod of Exclusion 4) | 47.4 | 13.4 | 11.3 |  |  |  |
| AGUCGAAAGAACCACAUGGACAUGAGGAUCACCCAUGUGCAAGCCUUUUUCUCGUCACUAUCGUCAAAAGACGAUAG [Omei Mir Offv1 A5] (Eterna round: R97, puzzle: Sensor, turn-off variant 1) |  |  |  | 168 |  | 227 |
| AGUCGUAGACAGGAUAUGCGGCUAAUAAAUAAAGCAGAAGGGUCUACUUGAGGAUCACCCAAGUGGGCGGUCUG [jl-ex6-4.22 ViennaUCT mod] (Eterna round: R97, puzzle: Exclusion 6) |  |  |  | 64.9 |  | 16.9 |
| AGUGAACAUGAGGAUCACCCAUGUUAGGAUAUGUAUAAUCGACGAGCCUUUUCGUCGGGCAGAAGGGAUGGUGA [Eternabot (L2) Solution 95] (Eterna round: R97, puzzle: Exclusion 1) |  |  |  | 44.7 |  | 41.6 |
| AGUGCGUAUGUGAGGAUAUGCUGGUCCUUGGAUCGGCAGAAGGCACAUGAGGAUCACCCAUGUGGUGUCGUACC [salish99_Bmod_ex4_076] (puzzle: Brourd's mod of Exclusion 4) |  | 136 |  |  |  |  |
| AGUGUCUUAGGAUAUACAUGAGGAUCACCCAUGUUAACAUUCCUUCGCGGUAUCGCAUGUAGAAGGAGGAUAUG [Eternabot (L1) Solution 68] (Eterna round: R97, puzzle: Exclusion 3) |  |  |  | 33.1 |  | 26.8 |
